Experimental data from article PMC9734910.

Biological target: PDF-2180 S ectodomain trimer (PDF-2180 (bat coronavirus, infects Pipisrellus hesperidus) | not stated)
Test: cryo-EM structure

PDF-2180 S ectodomain trimer (domain or fragment)
stoichiometry N: 3
